# Experiments:
# Test in all cases: purified protein
# O=C(O)CC(=O)C(=O)O = conditions: co-substrate acetyl-CoA, 100 mM Tris-HCl pH 7.8, 55°C
# [1] = tested on: CC(=O)SCCNC(=O)CCNC(=O)[C@H](O)C(C)(C)COP(=O)(O)OP(=O)(O)OC[C@H]1O[C@@H](n2cnc3c(N)ncnc32)[C@H](O)[C@@H]1OP(=O)(O)O; conditions: co-substrate oxaloacetate, 100 mM Tris-HCl pH 7.8, 55°C
# [2] = tested on: CCC(=O)SCCNC(=O)CCNC(=O)[C@H](O)C(C)(C)COP(=O)(O)OP(=O)(O)OC[C@H]1O[C@@H](n2cnc3c(N)ncnc32)[C@H](O)[C@@H]1OP(=O)(O)O; conditions: co-substrate oxaloacetate, 100 mM Tris-HCl pH 7.8, 55°C
# [3] = tested on: CC(C)(COP(=O)(O)OP(=O)(O)OC[C@H]1O[C@@H](n2cnc3c(N)ncnc32)[C@H](O)[C@@H]1OP(=O)(O)O)[C@@H](O)C(=O)NCCC(=O)NCCS; conditions: citrate cleavage direction, 55°C
substance,measurement,setting,value
Si-citrate/2-methylcitrate synthase (AHF97591) (Desulfurella acetivorans A63),Km,O=C(O)CC(=O)C(=O)O,30 ± 4.4 µM
same,Vmax,O=C(O)CC(=O)C(=O)O,21 µmol/min/mg
same,kcat/Km,O=C(O)CC(=O)C(=O)O,600 M⁻¹ s⁻¹
same,Km,[1],14 ± 1.8 µM
same,Vmax,[1],26 µmol/min/mg
same,kcat/Km,[1],1500 M⁻¹ s⁻¹
same,Km,[2],22 ± 3.5 µM
same,Vmax,[2],7.4 µmol/min/mg
same,kcat/Km,[2],300 M⁻¹ s⁻¹
same,Km,[3],41 ± 11 µM
same,Vmax,[3],0.1 µmol/min/mg
same,kcat/Km,[3],2000 M⁻¹ s⁻¹

# — article PMC11861179, “Propionate metabolism in Desulfurella acetivorans” (Frontiers in Microbiology, 2025)
